Source: patent US20250051454A1 (DUKE UNIVERSITY, published 2025)

B1: CA144 (antibody, V domains shown)
VH: QVQLVQSGGGLVKPGGSLRLSCAASGFTFSSYSMNWVRQAPGKGLEWVSSISSSSSYIYYADSVKGRFTISRDNAKNSLYLQMNSLRAEDTAVYYCARDRVEMAFHFDYWGQGTLVTVSS
VL: not shown
B2: CA150 (antibody, V domains shown)
VH: QVQLVQSGAEVKKPGSSVKVSCKASGGTFSSYAISWVRQAPGQGLEWMGGIIPIFGTANYAQKFQGRVTITADESTSTAYMELSSLRSEDTAVYYCASFPNCSSTSCYYYYYMDVWGKGTTVTVSS
VL: QSALTQPASVSGSPGQSITISCTGTSSDVGGYNYVSWYQQHPGKAPKLMIYDVSNRPSGVSNRFSGSKSGNTASLTISGLQAEDEADYYCSSYTSSSTRDVVFGGGTKLTVL
B3: CA131 (antibody, V domains shown)
VH: QVQLQESGSGLVKPSQTLSLTCAVSGGSISSGGYSWSWIRQPPGKGLEWIGYIYHSGSTYYNPSLKSRVTISVDRSKNQFSLKLSSVTAADTAVYYCATGGGHKELGGWGPRGTLVTVSS
VL: not shown
B4: CA124 (antibody, V domains shown)
VH: EVQLVQSGGGLVKPGGSLRLSCAASGFTFSDYYMSWIRQAPGKGLEWVSYISSSGSTIYYADSVKGRFTISRDNAKNSLYLQMNSLRAEDTAVYYCASGFSSWGADDYWGQGTLVTVSS
VL: DIVMTQSPSSLSASVGDRVTITCRASQGISNYLAWFQQKPGKAPKSLIYAASSLQSGVPSKFSGSGSGTDFTLTISSLQPEDFATYYCQQYNSYPLTFGQGTKLEIK
B5: CA139 (antibody, V domains shown)
VH: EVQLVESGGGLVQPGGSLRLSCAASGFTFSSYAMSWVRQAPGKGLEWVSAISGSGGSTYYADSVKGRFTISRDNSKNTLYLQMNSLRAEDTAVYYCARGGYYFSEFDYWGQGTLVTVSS
VL: DIVMTQSPSSLSASVGDRVTITCRASQGISNYLAWFQQKPGKAPKSLIYAASSLQSGVPSKFSGSGSGTDFTLTISSLQPEDFATYYCQQYNSYPLTFGGGTKVEIK
B6: CA118 (antibody, V domains shown)
VH: EVQLVESGGGLVKPGGSLRLSCAASGFTFSSYSMNWVRQAPGKGLEWVSSISSSSSYIYYADSVKGRFTISRDNAKNSLYLQMNSLRAEDTAVYYCARGWQQLAYWDYWGQGTLVTVSS
VL: SYELTQPPSVSVAPGQTARITCGGNNIGSKSVHWYQQKPGQAPVLVVYDDSDRPSGIPERFSGSNSGNTATLTISRVEAGDEADYYCQVWDSSSDHYVFGTGTKVTVL
B7: CA148 (antibody, V domains shown)
VH: QVQLVQSGAEVKKPGASVKVSCKASGYTFTSYGISWVRQAPGQGLEWMGWISAYNGNTNYAQKLQGRVTMTTDTSTSTAYMELRSLRSDDTAVYYCARTPGDEYYYYYYMDVWGKGTTVTVSS
VL: EIVLTQSPATLSLSPGERATLSCRASQSVSSYLAWYQQKPGQAPRLLIYDASNRATGIPARFSGSGSGTDFTLTISSLEPEDFAVYYCQQRSNWPRTFGQGTKLEIK
B8: CA149 (antibody, V domains shown)
VH: EVQLVESGGGLVKPGGSLRLSCAASGFTFSSYSMNWVRQAPGKGLEWVSSISSSSSYIYYADSVKGRFTISRDNAKNSLYLQMNSLRAEDTAVYYCARCAAGFVPDAFDIWGQGTMVTVSS
VL: not shown
B9: CA171 (antibody, V domains shown)
VH: EVQLVESGGGLVQPGGSLRLSCAASGFTFSSYSMNWVRQAPGKGLEWVSYISSSSSTIYYADSVKGRFTISRDNAKNSLYLQMNSLRAEDTAVYYCARTFYSNYLDAFDIWGQGTMVTVSS
VL: EIVLTQSPDTLSMCPGERATLSCRASQSVSSYLAWYQQKPGQAPRLLIYDASNRATGIPARFSGSGSGTDFTLTISSLEPEDFAVYYCQQRSNWLSMYTFGQGTKLEIK
B10: CA125 (antibody, V domains shown)
VH: EVQLVESGGGLVKPGGSLRLSCAASGFTFSSYSMNWVRQAPGKGLEWVSSISSSSSYIYYADSVKGRFTISRDNAKNSLYLQMNSLRAEDTAVYYCARVVDTAMGDAFDIWGQGTMVTVSS
VL: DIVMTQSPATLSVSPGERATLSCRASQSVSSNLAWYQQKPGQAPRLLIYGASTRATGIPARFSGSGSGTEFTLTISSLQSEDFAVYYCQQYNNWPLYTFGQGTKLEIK
B11: CA134 (antibody, V domains shown)
VH: EVQLVESGGGLVKPGGSLRLSCAASGFTFSSYSMNWVRQAPGKGLEWVSSISSSSSYIYYADSVKGRFTISRDNAKNSLYLQMNSLRAEDTAVYYCARVFGEQLVSFFDYWGQGTLVTVSS
VL: not shown
B12: CA141 (antibody, V domains shown)
VH: QVQLQESGGGLVKPGGSLRLSCAASGFTFSSYSMNWVRQAPGKGLEWVSSISSSSSYIYYADSVKGRFTISRDNAKNSLYLQMNSLRAEDTAVYYCARASENGDDAFDIWGQGTMVTVSS
VL: EIVLTQSPATLSLSPGERATLSCRASQSVSSYLAWYQQKPGQAPRLLIYDASNRATGIPARFSGSGSGTDFTLTISSLEPEDFAVYYCQQRSNWPPYTFGQGTKLEIK
B13: CA143 (human antibody on a human IgG1 backbone) (antibody, V domains shown)
VH: QVQLVQSGGGLVKPGGSLRLSCAASGFTFSSYSMNWVRQAPGKGLEWVSSISSSSSYIYYADSVKGRFTISRDNAKNSLYLQMNSLRAEDTAVYYCARDSLPAGDYFDYWGQGTLVTVSS
VL: DIQLTQSPSFLSASVGDRVTITCRASQGISSYLAWYQQKPGKAPKLLIYAASTLQSGVPSRFSGSGSGTEFTLTISSLQPEDFATYYCQQLNSYPQTTFGGGTKVEIK
B14: CA146 (antibody, V domains shown)
VH: EVQLVQSGGGVVQPGRSLRLSCAASGFTFSSYGMHWVRQAPGKGLEWVAVISYDGSNKYYADSVKGRFTISRDNSKNTLYLQMNSLRAEDTAVYYCAKDRYSIVGATSNGMDVWGQGTTVTVSS
VL: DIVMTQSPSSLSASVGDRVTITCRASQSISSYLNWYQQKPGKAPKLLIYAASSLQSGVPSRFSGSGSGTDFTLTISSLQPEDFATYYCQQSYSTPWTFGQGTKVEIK
B15: CA128 (antibody, V domains shown)
VH: QVQLVQSGGGLVKPGGSLRLSCAASGFTFSDYYMSWIRQAPGKGLEWVSYISSSGSTIYYADSVKGRFTISRDNAKNSLYLQMNSLRAEDTAVYYCARDSGSFVGVFDYWGQGTLVTVSS
VL: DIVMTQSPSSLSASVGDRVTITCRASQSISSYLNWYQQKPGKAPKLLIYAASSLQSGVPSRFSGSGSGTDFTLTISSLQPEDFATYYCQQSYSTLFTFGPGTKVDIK
B16: CA145 (antibody, V domains shown)
VH: EVQLVESGGGLVKPGGSLRLSCAASGFTFSDYYMSWIRQAPGKGLEWVSYISSSGSTIYYADSVKGRFTISRDNAKNSLYLQMNSLRAEDTAVYYCARDVLELRWWFDPWGQGTLVTVSS
VL: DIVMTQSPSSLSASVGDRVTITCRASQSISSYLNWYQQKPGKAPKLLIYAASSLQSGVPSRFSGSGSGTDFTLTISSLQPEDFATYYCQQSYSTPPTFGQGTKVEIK

Assays:
[1] = molecular target: T1, HLA-E-RL9HIV single chain trimer on transfected 293T cells (human, UniProt P61769 21-119; P13747 22-358); assay: flow cytometry, SCT-transfected 293T cells, MFI bar chart [E]
T1 construct: also called control HLA-E-peptide complex

[2] = molecular target: T2, HLA-E-RL9SIV single chain trimer on transfected 293T cells (human, UniProt P61769 21-119; P13747 22-358); assay: as above
T2 construct: also called control HLA-E-peptide complex

Binder | binding result [1] | binding result [2]
B1 | no binding (tested: 2 µg/ml) | no binding (tested: 2 µg/ml)
B2 | no binding (tested: 2 µg/ml) | no binding (tested: 2 µg/ml)
B3 | no binding (tested: 2 µg/ml) | no binding (tested: 2 µg/ml)
B4 | no binding (tested: 2 µg/ml) | no binding (tested: 2 µg/ml)
B5 | no binding (tested: 2 µg/ml) | no binding (tested: 2 µg/ml)
B6 | no binding (tested: 2 µg/ml) | no binding (tested: 2 µg/ml)
B7 | no binding (tested: 2 µg/ml) | no binding (tested: 2 µg/ml)
B8 | no binding (tested: 2 µg/ml) | no binding (tested: 2 µg/ml)
B9 | no binding (tested: 2 µg/ml) | 
B10 | no binding (tested: 2 µg/ml) | no binding (tested: 2 µg/ml)
B11 | no binding (tested: 2 µg/ml) | no binding (tested: 2 µg/ml)
B12 | no binding (tested: 2 µg/ml) | no binding (tested: 2 µg/ml)
B13 | no binding (tested: 2 µg/ml) | no binding (tested: 2 µg/ml)
B14 | no binding (tested: 2 µg/ml) | no binding (tested: 2 µg/ml)
B15 | no binding (tested: 2 µg/ml) | no binding (tested: 2 µg/ml)
B16 | no binding (tested: 2 µg/ml) | no binding (tested: 2 µg/ml)
